From the supplement of paper PMC10567573 come the findings set out here.

This data set is described as follows: protein stability index of a GFP-peptide fusion (GPS, HEK-293T) (PSI 1-6); higher = more stable.
Where [1] appears, read: treatment: DMSO, c terminus: a fixed tail appended.
[2] abbreviates: treatment: MLN4924 1 uM, 8 h, c terminus: a fixed tail appended.

± gives the standard deviation.
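Note: 24-mer peptide tiles fused after GFP, lentivirally expressed, FACS-sorted into six equal bins by GFP/DsRed ratio, decoded by Illumina sequencing, PSI is the read-weighted mean bin number.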

In the case of EYLSFFDFSGLTLDGALRTFLKAF [PSD2], the protein stability index under setting [1] is 2.44 ± 0.31 and the protein stability index under setting [2] came out at 2.01 ± 0.34. For TPVSYRMAKTLVFSKVKTSLGLDH [ACSBG2], in that order: 2.33 ± 0.33 and 2.41 ± 0.18. CETTLFALRMATWNQILDPWVYIL [PTGFR]: the protein stability index by setting is: under setting [1], 2.89 ± 0.16; under setting [2], 2.93 ± 0.6. For NMCMGRTSRGKLGGQDSFESIESY [ETS1] the same measures were 3.612 ± 0.034 and 3.72 ± 0.49.

For KPAFIGKTNLDGMITVQLPEVPAN [PTPRD], the protein stability index runs as follows: under setting [1], 3.77 ± 0.16; under setting [2], 3.81 ± 0.19. For NGFTPLHFAAASTHGALCLELLVN [ANKRD44], in that order: 3.06 ± 0.71 and 2.95 ± 0.9. Turning to QFPYVEFTGRDSITCLTCQGTGYI [TMEM106C], the protein stability index under setting [1] was 2.93 ± 0.47 and the protein stability index under setting [2] was found to be 3.09 ± 0.52. Consider SRQRQSRMEKGEPYMSIQPAEDPD [SMARCE1], for which the protein stability index is 5.55 ± 0.11 under setting [1] and 5.57 ± 0.33 under setting [2]. For GEKPYLSPDILEEKHCEFKQLALD [ATL3] the same measures were 4.42 ± 0.25 and 4.92 ± 0.12.

Consider WVYKNKLIFFGGYGYLPEDKVLGT [KLHDC2], for which the protein stability index stood at 2.55 ± 1.1 under setting [1] and 2.88 ± 1.4 under setting [2].

As for RASQREYEELRNSERAEVQRLEEQ [RSPH3], the protein stability index is, setting by setting: under setting [1], 5.43 ± 0.27; under setting [2], 5.3 ± 0.2.

For the sequence TPLTFTKVSEGQADIMISFVRGDH [MMP1], the protein stability index is, setting by setting: under setting [1], 2.64 ± 0.28; under setting [2], 2.65 ± 0.26.

As to LCEKEPLGNVLFSPICLSTSLSLA [SERPINB5], the protein stability index came out at 2.13 ± 0.34 under setting [1] and 2.18 ± 0.34 under setting [2]. For PTDYQVNIQIIEYEKKQTLGQNDT [BTBD1], in that order: 3.76 ± 0.27 and 3.91 ± 0.13. For DSFDKFDFCEPSFVTGNCLEISPD [PCMTD2], in that order: 4.36 ± 0.12 and 4.66 ± 0.46. For SILRAPAYPLELQGQPDPAPRPGP [MOSPD3] the same measures were 4.53 ± 0.28 and 4.39 ± 0.43. Consider RWLPEKRANPCLSSSNEHAAPAAK [ELOA2], for which the protein stability index is 4.25 ± 0.18 under setting [1] and 4.08 ± 0.16 under setting [2]. For YDSFDSEDYPAALPNHKPKGTFKD [ETS1], in that order: 5.05 ± 0.17 and 4.83 ± 0.22. Consider KTIEELRDKILTATIENNRVILEI [KRT13], for which the protein stability index runs as follows: under setting [1], 2.57 ± 0.46; under setting [2], 2.71 ± 0.64. For GQGAMFRLPTDSHFPYDLHLRSQS [NEUROD6] the same measures were 3.02 ± 0.3 and 3.11 ± 0.22. For NYECNLYTFLYLVCISTKTQCSEE [FEM1B] the same measures were 3.11 ± 0.38 and 2.81 ± 0.4. In the case of GNKQWWFGGGCDLTPTYLNQEDAI [CPOX], the protein stability index stood at 3.12 ± 0.19 under setting [1] and 3.33 ± 0.23 under setting [2].

In turn, KYLKVPQDPLKFYKKIYFCHSCQL [IQUB] gave a protein stability index under setting [1] of 2.24 ± 0.47 and a protein stability index under setting [2] of 1.97 ± 0.2. Consider LPCQHNLCRKCANDIFQAANPYWT [TRIM63], for which the protein stability index runs as follows: under setting [1], 2.38 ± 0.18; under setting [2], 2.29 ± 0.14. For PVSLSASQSWHTESLPVSLGPESW [BCL2L13] the same measures were 3.37 ± 0.26 and 3.21 ± 0.11. For VPDSDIKALTTLCDLADRELVVII [ESRRG] the same measures were 2.53 ± 0.38 and 2.6 ± 0.45.

Take IPRENAQISLDGDVTFFGALKLL [TNFSF13B]: the protein stability index is 2.71 ± 0.24 (treatment: DMSO, c terminus: native) and 2.73 ± 0.46 (treatment: MLN4924 1 uM, 8 h, c terminus: native).

Regarding VILAVSYMSQVLEKEMKAQEQRLG [GMPPB], the protein stability index came to 2.27 ± 0.42 under setting [1] and 2.08 ± 0.17 under setting [2]. NIIDIYKQESTRPEKKSDQPMCEE [TRIM55]: the protein stability index came out at 5.05 ± 0.26 under setting [1] and 5.02 ± 0.052 under setting [2]. For SLVKELLRMCSHGEGKINYYNFVR [EFHC1] the same measures were 2.31 ± 0.32 and 2.46 ± 0.8. For STYYWPRPRRYVQPPEMIGPMRPE [GAGE1] the same measures were 2.68 ± 0.33 and 3.01 ± 0.31. For ILKHTPKEHPDVQLLEDAILIIQG [NET1] the same measures were 2.12 ± 0.27 and 1.99 ± 0.35. Take LPSERLDFSMAEALNQEFLATRSN [PRPH]: the protein stability index reads like this: under setting [1], 4.24 ± 0.17; under setting [2], 4.3 ± 0.2.

On to NSPGAYRSHPDNAIPIKSWFSDPS [CTDNEP1], for which the protein stability index by setting is: under setting [1], 3.37 ± 0.23; under setting [2], 3.4 ± 0.12. Regarding FGRKDHLTRHTKKTHSQELMKESL [PLAGL1], the protein stability index was determined as 3.53 ± 0.2 under setting [1] and 3.77 ± 0.26 under setting [2]. For NPQALSPQFTGILQLLQSRTSRKF [INTS3] the same measures were 2.93 ± 0.22 and 2.98 ± 0.35. Turning to GKKDKHSQSPRAAGPREGHSHSHH [PBXIP1], the protein stability index was 5.32 ± 0.31 under setting [1] and 5.26 ± 0.1 under setting [2]. For PGVFVLLACGTMSSTCGQLASYPL [SLC25A25] the same measures were 3.18 ± 0.3 and 2.66 ± 0.61. For GNRILDEKEQEKMRQDLEEERVAL [PKD2L1], in that order: 5.24 ± 0.74 and 5.57 ± 0.27. For FLDLMETIDKQREEMAKSSRASAA [LRRC45], the protein stability index reads like this: under setting [1], 3.71 ± 0.11; under setting [2], 4.08 ± 0.3.

For the sequence GIVVESNHDSHMAKERAHSTASHS [PDZK1], the protein stability index under setting [2] is 4.44 ± 0.21. As to SPVLLGWVEQAYADKCVCGPSAPP [TIAF1], the protein stability index by setting is: under setting [1], 2.67 ± 0.057; under setting [2], 2.86 ± 0.28. As to SDINSIRRILDELTLCKSDLESQV [KRT34], the protein stability index reads like this: under setting [1], 3.34 ± 0.2; under setting [2], 3.1 ± 0.37. As for MTLPLLRQTSTKAVQHFYNIKLEG [ESRRG], the protein stability index by setting is: under setting [1], 2.48 ± 0.18; under setting [2], 2.44 ± 0.26. For TISFGSVSPGGVKLEISTKEVPVV [EPB41L3] the same measures were 2.9 ± 0.21 and 3.31 ± 0.18. Take CQMFLGKTEAEIAHIALETLEGHQ [FLOT1]: the protein stability index runs as follows: under setting [1], 3.36 ± 0.43; under setting [2], 3.37 ± 0.13. For EAGGKQKAVEEELDAEDRPAWNSK [SLC6A17] the same measures were 5.62 ± 0.16 and 5.57 ± 0.15.

With RERKKNWGGQEDREPAGRWKEGRP [PBXIP1], the protein stability index under setting [1] was 4.49 ± 0.24 and the protein stability index under setting [2] was found to be 4.73 ± 0.13. Consider NSVNDQTKILVVNAAYFVGKWMKK [SERPINB5], for which the protein stability index is, setting by setting: under setting [1], 2.3 ± 0.26; under setting [2], 2.48 ± 0.5. For LPSVFGSLRDSGYFYDPIERDIEI [RSPH3] the same measures were 2.31 ± 0.37 and 2.64 ± 0.61. For DTDVDMEGLRRRRGREAGPPQPMV [PBXIP1] the same measures were 4.75 ± 0.36 and 5.04 ± 0.11. For HYYLMDDTVEIREVHERNDGIDPF [EFHC1] the same measures were 3.92 ± 0.18 and 3.86 ± 0.32.

LASSLSPSQDERMRSPQNLHSQED [NOL4L]: the protein stability index turned out to be 5.37 ± 0.38 under setting [1] and 5.54 ± 0.12 under setting [2]. Take RADKNDDGKLSFEEFKAYFADGVL [NECAB1]: the protein stability index turned out to be 3.48 ± 0.3 under setting [1] and 3.58 ± 0.39 under setting [2].
